# Reference: patent US6713276B2, “Modulation of Aβ levels by β-secretase BACE2” (Scios, Inc., priority 2000, dated 2004)
# B1: BACE2 D110A: single D110A BACE2 mutant of a critical aspartate residue, made by site-directed mutagenesis (protein)
# chain: ALEPALASPAGAANFLAMVDNLQGDSGRGYYLEMLIGTPPQKLQILVATGSSNFAVAGTPHSYIDTYFDTERSSTYRSKGFDVTVKYTQGSWTGFVGEDLVTIPKGFNTSFLVNIATIFESENFFLPGIKWNGILGLAYATLAKPSSSLETFFDSLVTQANIPNVFSMQMCGAGLPVAGSGTNGGSLVLGGIEPSLYKGDIWYTPIKEEWYYQIEILKLEIGGQSLNLDCREYNADKAIVDSGTTLLRLPQKVFDAVVEAVARASLIPEFSDGFWTGSQLACWTNSETPWSYFPKISIYLRDENSSRSFRITILPQLYIQPMMGAGLNYECYRFGISPSTNALVIGATVMEGFYVIFDRAQKRVGFAASPCAEIAGAAVSEISGPFSTEDVASNCVPAQSLSEPILWIVSYALMSVCGAILLVLIVLLLLPFRCQRRPRDPEVVNDESSLVRHRWK
# B2: BACE2: human aspartyl protease, close homolog of BACE (SEQ ID NO: 2), expressed from pcDNA3.1(−)/BACE2 in transfected cells (protein)
# chain: MGALARALLLPLLAQWLLRAAPELAPAPFTLPLRVAAATNRVVAPTPGPGTPAERHADGLALALEPALASPAGAANFLAMVDNLQGDSGRGYYLEMLIGTPPQKLQILVDTGSSNFAVAGTPHSYIDTYFDTERSSTYRSKGFDVTVKYTQGSWTGFVGEDLVTIPKGFNTSFLVNIATIFESENFFLPGIKWNGILGLAYATLAKPSSSLETFFDSLVTQANIPNVFSMQMCGAGLPVAGSGTNGGSLVLGGIEPSLYKGDIWYTPIKEEWYYQIEILKLEIGGQSLNLDCREYNADKAIVDSGTTLLRLPQKVFDAVVEAVARASLIPEFSDGFWTGSQLACWTNSETPWSYFPKISIYLRDENSSRSFRITILPQLYIQPMMGAGLNYECYRFGISPSTNALVIGATVMEGFYVIFDRAQKRVGFAASPCAEIAGAAVSEISGPFSTEDVASNCVPAQSLSEPILWIVSYALMSVCGAILLVLIVLLLLPFRCQRRPRDPEVVNDESSLVRHRWK
# Experiments:
# Assay type in all cases: cell-based, human
# [1] = tested on: CT100 (C-terminal 100 amino acids of APP) processing in HEK293T cells; experiment: co-transfection with CT100 in HEK293T cells, ELISA, Western blot, pulse-chase; details: for CTFs derived from CT100 (α-like CTF): HEK293 cells, CT100, Western blot and pulse-chase 90 minutes
# Procedure: (§1) Expression vectors containing BACE and BACE2 cDNAs were transfected into HEK293T cells in the presence of APP751sw or CT100 (Shoji et al., Science 258: 126-129 [1992]; Lichtenthaler et al., Proc. Natl. Acad. Sci. USA 96: 3053-3058 [1999]). Transfections were performed in 24 well plates using Lipofectamine Plus (Gibco/BRL, Bethesda, Md.) and DNA concentrations were kept constant by including non-specific DNA. Expression plasmids were tested for BACE and BACE2 expression by Western blotting. Cell culture supernatants were collected 48 hours and 72 hours post-transfection, and assayed for α-NTF, β-NTF and Aβ formation. β-NTF measurement was performed as described below. α-NTF was captured like β-NTF but was detected with biotinylated 2H3 (Johnson-Wood et al., Proc. Nati. Acad. Sci. USA 94: 1550-1555 [1997]). Aβ levels were determined by an ELISA using monoclonal antibodies 266 for capture and biotinylated 3D6 for detection (see Johnson-Wood et al., [1997] ibid for antibody epitope description). Aβ42, in contrast, was captured using 21F 12 and detected with biotinylated 3D6. Cell extracts prepared 72 hour post-transfection were separated by SDS-PAGE (Novex) and probed with CT695 (Zymed) for APP and CTFs as well as with an Aβ specific monoclonal antibody WO2 (kindly provided by K. Beyreuther; Ida et al., J. Biol. Chem. 271: 22908-22914 [1996]). […]
# This effect prompted investigation into whether β-secretase cleavage was required for Aβ suppression. The effects of BACE2 on the metabolism of the C-terminal 100 amino acids of APP (CT100), a construct that mimics prior β-secretase cleavage (Shoji et al., Science 258: 126-129 [1992]), was analyzed. […] Cells were readiolabeled with ^35S-methionine/cysteine for 15 minutes after which the medium containing radiolabel was removed and replaced with standard medium. […] Over this 90-minute period, samples were taken and assessed for CTFs by immunoprecipitation. […]
# [2] = tested on: APP751sw processing in HEK293T cells; experiment: pulse-chase / pulse-labeling and immunoprecipitation of APP CTFs, Aβ and p3 in HEK293T cells
# Procedure: Forty eight hours post-transfection, HEK293T cells were labeled for 15 minutes with 200 μCi Promix L [^35S] in vitro cell labeling mix (Amersham) and chased for up to 90 minutes according to standard procedures. APP CTFs were immunoprecipitated with antibodies 369 (Cai et al., Science 259: 514-516 [1993]). For immunoprecipitations of Aβ and p3 from conditioned medium, HEK293T cells were labeled for 5 hours with 300 μCi Promix L [^35S] in vitro cell labeling mix (Amersham) 48 hours post-transfection. Aβ40 and Aβ42 as well as the corresponding p3 species were immunoprecipitated with monoclonal antibodies 1702.1 and 108.1, respectively (Higaki et al., J. Med. Chem. 42: 3889-3898 [1999]).
# To analyze the metabolism of APP as a consequence of BACE or BACE2 overexpression we performed a parallel pulse-chase experiment (FIG. 2e). HEK293T cells transfected as above were pulse-labeled and chased for up to 90 minutes and APP and CTFs were immunoprecipitated. […] An alternative β-secretase related cleavage product (β′-CTF) was also formed consistent with previous reports (Vassar et al., Science [1999] ibid; Higaki et al., Neuron 14: 651-659 [1995]). Consistent with its β-secretase activity, BACE2 overexpression led to a significant initial increase in β-CTF levels compared to mock-transfected cells. […] In general, BACE2 might have increased the overall APP turnover. To determine whether BACE affected γ-secretase activity, we determined whether p3 could be formed. We transfected HEK293 cells as in FIG. 2e and labeled them for 5 hours with Promix L [^35S]. Aβ from conditioned medium was then precipitated with antibodies directed against the C-terminal residues of Aβ40 and Aβ42, respectively, that also recognize p3 (FIG. 2f). […] Taken together, BACE2 expression leads to alternative processing of APP that precludes Aβ formation.
# [3] = tested on: APP751sw processing in SK-N-MC cells; experiment: co-transfection with APP751sw in SK-N-MC neuroblastoma cells, ELISA of conditioned medium; details: co-transfected with APP751sw
# Procedure: as §1, with “3D6.” for “3D6. Cell extracts prepared 72 hour post-transfection were separated by SDS-PAGE (Novex) and probed with CT695 (Zymed) for APP and CTFs as well as with an Aβ specific monoclonal antibody WO2 (kindly provided by K. Beyreuther; Ida et al., J. Biol. Chem. 271: 22908-22914 [1996]).”
# We further assessed the modulatory effect of BACE2 on Aβ formation using a human neuroblastoma cell line, SK-N-MC.
# [4] = HEK293 cells, labeled for 5 hours, conditioned medium
Molecule,CTFs derived from CT100 (α-like CTF) [1],"APP CTF turnover (β-CTF, β′-CTF, α-CTF) ([2]; HEK293T, APP751sw, 15 min pulse, chase up to 90 minutes)","formation of Aβ40 and Aβ42 (immunoprecipitation) [2, 4]","p3 formation [2, 4]","total Aβ and Aβ42 levels in conditioned medium ([1]; HEK293T, co-transfected with CT100)",Aβ in conditioned medium [3],β-NTF in conditioned medium [3]
B1,unable to convert APP CT100 to an α-CTF-like fragment,–,–,–,–,–,–
B2,accumulation of the α-like CTF,strong accumulation of a cleavage product that based on size and gel migration corresponded to α-CTF,interfered with the formation of both Aβ40 and Aβ42,p3 levels were not significantly affected,dramatic suppression of total Aβ as well as Aβ42 levels,significant reduction of Aβ,showed β-secretase activity in vivo
